Measured values reported in the nanobody polyreactivity screen of Harvey et al. (2022).

Assay: yeast display, Sf9 membrane polyspecificity reagent, FACS + sequencing; frameworks hold sequencing errors
In short: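 A nanobody's polyreactivity label depends on the gate it was sorted from. Yeast display cells were stained with 10% biotinylated, detergent-solubilized Sf9 membrane reagent for 1 hour at 4 °C, enriched on streptavidin microbeads and sorted by FACS. The low and high (top ~1%) gates were set on anti-HA fluorescence for expression and streptavidin fluorescence for reagent binding.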

## QVQLVESGGGLVQAGGSLRLSCAASGVIFSLYAMGWYRQAPGKERELVAVITWSDGRTYYADSVKGRFTISRDNAKNTVYLQMNSLKPEDTAVYYCAAADWITEYDYWGQGTHVTVSS
  polyreactivity (PSR sort gate): low polyreactivity

## QVQLVESGGGLVQAGGSLRLSCAASGLTFRSYSMGWYRQAPGKEREFVAAITGSGDTTYYADSVKGRFTISRDNAKNTVYLQMNSLKPEDTAVYYCNADRDYLWITLYEYWGQGTQVTVSS
  polyreactivity (PSR sort gate): high polyreactivity

## QVQLVETGGGLVQAGGSLRLSCAASGRTLSQNTMGWNRQAPRKEREFVASITYSGGITYYADSVKGRFTISRDNAKNTVYLQMNSLKPEDTAVYYCNKRGSHYWYSYPGDYWGQGTQVTVSS
  polyreactivity (PSR sort gate): low polyreactivity

## QVQLVESGGGLFQAGGSLRLSCAASGFIVRRYAMGWYRQAPGKEREMVAAITSGGGRTYYADSVKGRYTISRDNAKYTVNLEMISLKPEDTGVYDCARVQRCDYDYWGQGTQVTVSS
  polyreactivity (PSR sort gate): high polyreactivity

## QVQLVESGGGVVQAGGSLRVSCAATGSIYYRSAMGWYRQAPGKERELVAAISVSGGSTYYADSVKGRFTISRDNAKITDYLQMNSLKPEDTAVYYCAAVVRYGYEYWGQGTQVTVSS
  polyreactivity (PSR sort gate): high polyreactivity

## QVQLVESGGGLVQAGGSLRLSCAASGSILRQYAMGWYRQAPGKERELVATISRSGGSKYYADSVKGRFTISRDNAKNTVYLQMNSLKPEDTAVYYCAASRYNKSYREWWVGSWGQGTQVTVSS
  polyreactivity (PSR sort gate): high polyreactivity

## QVQLVESGGCLVQAGRSLRLSCAASGSTFYYNAMAWYRQAPGKERELVAAITFTGGSTYADSVKGRFTISRDNAKNTVYFQMNSQKPEDTAVYYCAATIQGHDYLGTGYDYWGQGTQVTVSS
  polyreactivity (PSR sort gate): low polyreactivity

## QDQLVESGGGLVQAGGSLRLSCAASGSTFKYYAMGWYRQAPGKERELVAAISWTGGSTYYADSVKGRFTISRDNAKNTVYLQMNSLKPEDTAVYYCNAMGHVQGYDYWGQVTQVTVSS
  polyreactivity (PSR sort gate): high polyreactivity

## QVQLVESGGGLVQAGGSLRLSCAASGIIFDTNDIGWYRLGPGKERELVATITQRGGTTYYADSVKGRFTISRDNATNTVYLQMNSLKPEDTAVYYCDADRRSKYDYWGQGTQVSVSS
  polyreactivity (PSR sort gate): low polyreactivity

## QVQLVESGVGLVQAGGSLRLCCAASGSTSKYYAMVWYRQSPGKERELVAAITWSDVSTYYADSVKGRFTISRDNAKNTVYLQMNSLKPADTAVYYCNAGYDYWGQGTQVTVSS
  polyreactivity (PSR sort gate): low polyreactivity

## QVQLVESGGGLVQAGGSLRLSCAASGRTFRYYAMGWYRQAPGKERELVAAIRTSGSTNYADSVKGRFTISRDNAKNTVYLQMNSLKPEDTAVYYCAAQPYWRYPYRAERDYWGQGTQVTVSS
  polyreactivity (PSR sort gate): high polyreactivity

## QVQLVESGGGLVQAGGSLRLSCAASGSIFSYYTMGWYRQAPGKERELVAAITRGGRTSYADSVKGRFTISRDNAKNTVYLQMNSLKPEDTAVYYCAADYWYFTHQLSTYGDNYWGQGTQVTVSS
  polyreactivity (PSR sort gate): low polyreactivity

## QVQLLESGGGLVQAGCSLRLSCAASGFTFKSNAMGWYRQAPGKESELVARINRSGGSTYYADSVKGRFTISRYNAKNTVYLQMNSLKPEDTAVYYCARGRYTLYESKYDYWGQGTQVTVSS
  polyreactivity (PSR sort gate): high polyreactivity

## QVQLVESGGGLVQAGGSLRLSCAASGSTLPVNAMGWYRQAPGKERELVAAINRDGSTNYADSVKRPFTISRDNAKNNVYLQMNCLKPDDTAVYYCGADGFGYPGKRYDYWGHGTQVTVSS
  polyreactivity (PSR sort gate): low polyreactivity

## QVQLVESGAGLVQAGGSLRLSCAASGSIFWYNAMGWYRQAPGKERELVAAITSGGTTSYADSVKGRFTISRDNAKNTVYLQMNSLKPEDTAVYYCNADAVPFPTLVTYLYDYWGQGTQVSVSS
  polyreactivity (PSR sort gate): low polyreactivity

## QVQLVESGGGLVQAGGSLRLSCAASGSIFYYYAMGWYRQAPGKEREFVAAITKRADRTYYADSVKGRFTISRDNAKNTVYLQMNSLKPEDTAVYYCNADFVWRNGYLGFYRYDYWGQGTQVTVSS
  polyreactivity (PSR sort gate): low polyreactivity

## QVQLVESGGGIVQAGGSLRLSCAASGRTFYRNAMGWYRPAPGKERELFAVISLNGGRTYYADSVKGRFTISRDNAKNTVYLQMNSLKPEDTAVYYCNKLTGPVFTRGFYYWGQGTQVTVSS
  polyreactivity (PSR sort gate): high polyreactivity

## QVQLVESGGGFVQAGGSLRLSCAASGRIFYGYAMGWYRQAPGKERELVAAISSGGITYYADSVKGRFTISRDNAKNTVYLQMNSLKPEDTAVYYCAADWAYYVASYLYYTFDYWGQGTQVTVSS
  polyreactivity (PSR sort gate): low polyreactivity

## QVQLVESGLGLVQAGGSLRLSCAASGSTFSNNAMGWYRQAPGKERELVASITRSGGSTYYADTVKGRFTISRDNAKNTVYLQMNSLKPEDTAVYYCNADGYYDYDYGEWGQGTQVTGSS
  polyreactivity (PSR sort gate): low polyreactivity

## QVQLVDSGGGLVQAGGSLRLSCAPSGSTFGYNAMGWYRQAPGKERELVAAITWSGGSTYYADSVKGRFTISRDNAKNTVYLQMNSLKPEDTAVYYCAADDWYNSKWHYYSWGQGTQLTVSS
  polyreactivity (PSR sort gate): low polyreactivity

## QVQLVESGGGVVQAGGSLRLSCAASGSTFTVNGMGWYRQAPGKERELVAAIVGGDGSTYYADSVKGRFTISRDNAMNTVYLQMNSLKPEDTAVYYCAADPPGFTQYGYWGQGTQVTVSS
  polyreactivity (PSR sort gate): low polyreactivity

## QVQLVESGGGLVQAGGSLRLSCAASGFAVSYYAMAWYRQAPGKEREFVASSDWSGGSTYYADSVKGRFTISRDNAKNTVYLQMNSLKPEYTAVYYCAAELVYFPGYDYWGQGTQVTVSS
  polyreactivity (PSR sort gate): low polyreactivity

## QDQLVESCGGLVQAGGSLRLICAAYGRIISINAMGWYRQAPVKERELVATISWRGGSTYYADSVKGRFTISRDNAKNTVYLQMNSLKPEDTAVYYCKKVFSERWARYFRYDYWVQGTQVTVSS
  polyreactivity (PSR sort gate): high polyreactivity

## QVQLVESGGGLVQAGGSLRLSCAASGSIFRVYAMGRYRQAPGKEREFVAAISYSTGSTYADSVKGRFTISRDNAKNTVYLQMNSLKPEDTAVYYCNARLRYGSRDEYDYWGQGTQVTVSS
  polyreactivity (PSR sort gate): low polyreactivity

## QVQLVESGGGLVQAGGSLRLSCAASGSIFYVYAMGWYRQAPGKERELVAAITNYADSVKGRFTISRDNAKNTVYLQMNSLKPEDTAVYYCAADWWRVEMDYWGQVTQVTVSS
  polyreactivity (PSR sort gate): low polyreactivity

## QVQLEESGGGLVQAGGSLRLSCAASGSTFIVNAMGWYRQAPGKERELVATISGGDSTDYADSVKGRFTISRDNAKNTVYLQMKSLKPEDTAVYYCNAEVHQYYFTPYDYWGQGTQVTFSS
  polyreactivity (PSR sort gate): low polyreactivity

## QFQLVESGGGLVQAGGSLRLSCAASGRTFRYYAMGGYIQAPGKERELVGAITTGSSTYYADSVKGRFTISRDNAKNTVYLQMNSLKTEDTAVYYCHVFQGTRYGYWGQGTKVTVSS
  polyreactivity (PSR sort gate): low polyreactivity

## QVQLVESGGGLVQAGGSLRLSCAASGLTFVDYAMGWYRQAPGKERELVASIDYSGSSTYYADSVKGRFTISRDNAKNTVYLQMNSLKPEDTAVYYCAATDSGEYWGQGTQVTVSS
  polyreactivity (PSR sort gate): low polyreactivity

## QVQLVESGGGLVQAGGSLRLSCAASGRIFVCYAMGWYRQAPVKERELLAAITCRGGSTYYADSVKGRFTISRDNAKNTVYLQMNSLKPEDTEVYYCAAVGHSGGRRYDYWGQGTQVTVSS
  polyreactivity (PSR sort gate): high polyreactivity

## QVQLVESGGGLVQAGGSLRLSCAASGRIFSRYTMGWYRQAPGKERELVAAISRRGGSTNYADSVKGRFTISRDNAKNTVYLQMNSLKPEDTAVYYCAAHGPFVRSQSLRSGRFDYWGQGTQVTVSS
  polyreactivity (PSR sort gate): high polyreactivity

## QVQLVESGGGLVQAGGSLRLSCAASGRTFGPNAMGWYRQAPGKERELVAVISGSTGSTYYADSVKGRFTISRDNAKNTVYLEMNSLKPEDTAVYYCAAKSEFYDWYRSYQYEYYYWGQGTQVTVSS
  polyreactivity (PSR sort gate): high polyreactivity

## QVQLVESGGGLVQAGGSLRLSCAASGNIFLRYAMGWYRQAPGKERELVAAISYSGGGSTYYADSVKGRFTISRDNAKNTVYLQMNSLKPEDTAVYYCAKVLTSRTQFFDYDYWGQGTQVSVSS
  polyreactivity (PSR sort gate): low polyreactivity

## QVQLVESGGGLVQAGGSLRLSCAASGFTFRVYAMGWYRQAPGKERELVAVISGTGGRTYYADSVKGRFTISRDNAKNTVYLQMNSLKPEDTAVYYCARRGRPPAIYDYWGQGTQVTVSS
  polyreactivity (PSR sort gate): high polyreactivity

## QVQLVESGGGLVQAGGSLRLSCAASGRTFRYYALGWYRQAPGKERELVAAITSSGDSTYYADSVKGRFTISRDNAKNTVYLQMHSLKQEDTAVYYCADGQPLFYDAEYGYWGQGTQVTVSS
  polyreactivity (PSR sort gate): low polyreactivity

## QVQLVESGGGLVQEGGSLRLSCGASGSIFSCYAMGWYRQAPGKERELVAGITWSGGSTYYADSVKGRFTNSRDNAKNTVYLQMNSLKPEDTSVYYCAAKYYWYYSDSGIPLFDYWGQGTQVTVSS
  polyreactivity (PSR sort gate): low polyreactivity

## QVQLVESGGGLVQAGGILRLSCAASGSIFPGYAMGWYRQAPGKERELVAAISTSGGSTYADSVKGRFTISRDNAKNTVYLQMNSLKPEDTAVYYCAATYTYTSPVYYSLDGPWPYDYWGQGTQVTVSS
  polyreactivity (PSR sort gate): low polyreactivity

## QVQLLESGGGLVQAGGSLRLSCAASGSTFRYYAMGWYRQAPGKERELVAAISKSGGRTYYADSVKGRFTISRDNAKHTVYLQMNSLKPEDTAVYYCAADSKEVRYDYWGQGTQVTVSS
  polyreactivity (PSR sort gate): high polyreactivity

## QVQLVESWGGLVQAGGSLSLSCAASGRIIARNAMGWYRQAPGKEREFVAAISFSDGSTYYADSVKGRFTISRDNAKNTVYLQMNSLKPEDSAVYYCNKGASPDDYDYWGQGTQVTVSS
  polyreactivity (PSR sort gate): low polyreactivity

## QVQLVESVGGLVQAGGSLRLSCAASGSTFAGNAMGWSRQAPGKERELVAAIDSSTGSTYYADSVKGRFTISRDNAKNTVYLQMNSLKPEDTSVYYSNKTSFLVKLDYWGHGTQVTVSS
  polyreactivity (PSR sort gate): low polyreactivity

## QVQLEESGGGFVQAGGSLRLSCAASGYIFFPHAMGWYRQATWKERELVAAINSRGASTYYADSVKGRFTISRDNAKNTVSLQMNSLKPVDTAVYYCAKGSGLHIYHYYGVPYDYWGQGTQVTVSS
  polyreactivity (PSR sort gate): low polyreactivity

## QVQLVESGGGLVQAGGSLRLSCAASGRIFTKNTMGWYRQAPAQERELVAAIRSRAGSTYYADSVKGRFTISRDNEKNTVYLQMNSLKPEDTAVYYCAVRWFRSVDFDYWGQGTQVTVSS
  polyreactivity (PSR sort gate): low polyreactivity

## QVQLVESGGGLVQAGGSLRLSCAASGRIFRGYAMGWYRQAPGKEREFVAAITKNGGSTYYADSVKGRFTISRDNAKNTVYLQMNSLKPEDTAVYYCAAGGPSTLDDYWGQGTQVTVSS
  polyreactivity (PSR sort gate): low polyreactivity

## QVQLVESGGGLVQAGGSLRLSCAASGRTFTVNAMGWYRQAPGKERELVARISYGGARTYYADSVKGRFTISRDNAKNTVYLQMNSLKPEDTAVYYSAAPGPRKYEYDYWGQGTQVTVSS
  polyreactivity (PSR sort gate): high polyreactivity
